Measured values from PMC2905227 (Journal of the American Chemical Society, 2010).
Numbering of substitutions follows the chain as printed.

Legend:
Experiment in all cases: competitive inhibition of enzyme activity
[NO2Y730]-α2(C439A) = target: T1, [NO2Y730]-α2(C439A) (E. coli, UniProt P00452 1-761, C439A, 3-nitrotyrosine (NO2Y) in place of Y730)
T1 sequence (looked up): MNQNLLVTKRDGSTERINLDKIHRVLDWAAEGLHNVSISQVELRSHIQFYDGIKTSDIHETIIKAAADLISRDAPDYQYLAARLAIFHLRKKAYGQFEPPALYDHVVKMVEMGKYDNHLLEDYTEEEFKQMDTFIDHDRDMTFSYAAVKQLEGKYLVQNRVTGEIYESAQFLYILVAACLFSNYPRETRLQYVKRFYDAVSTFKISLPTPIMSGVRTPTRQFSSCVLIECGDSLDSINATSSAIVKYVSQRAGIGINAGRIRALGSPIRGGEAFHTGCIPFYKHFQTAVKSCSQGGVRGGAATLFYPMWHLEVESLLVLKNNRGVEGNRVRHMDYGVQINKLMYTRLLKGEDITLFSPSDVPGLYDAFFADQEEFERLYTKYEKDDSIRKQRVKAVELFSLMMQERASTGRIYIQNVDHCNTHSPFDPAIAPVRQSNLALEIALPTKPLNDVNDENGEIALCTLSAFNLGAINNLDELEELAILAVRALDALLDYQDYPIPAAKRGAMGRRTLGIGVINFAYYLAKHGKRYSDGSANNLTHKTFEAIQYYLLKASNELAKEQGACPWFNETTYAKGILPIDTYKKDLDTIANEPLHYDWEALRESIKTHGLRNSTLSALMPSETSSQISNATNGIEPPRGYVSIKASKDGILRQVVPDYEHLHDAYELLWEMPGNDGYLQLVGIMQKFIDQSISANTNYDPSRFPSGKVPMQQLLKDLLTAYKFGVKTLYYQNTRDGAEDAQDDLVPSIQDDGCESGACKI

[NO2Y730]-α2(C439S) = target: T2, [NO2Y730]-α2(C439S) (E. coli, UniProt P00452 1-761, C439S, 3-nitrotyrosine (NO2Y) in place of Y730)
T2 sequence (looked up): T1 sequence (looked up) with A439S

[1] = target: T3, wild-type E. coli ribonucleotide reductase α2 subunit (E. coli, UniProt P00452 1-761)
T3 sequence (looked up): T1 sequence (looked up) with A439C

- Kd ([NO2Y730]-α2(C439A)): 2070 ± 70 nM
- Kd ([NO2Y730]-α2(C439S)): 1280 ± 70 nM
- binding result [1]: binds
B1: wild-type E. coli ribonucleotide reductase β2 subunit (enzyme, UniProt P69924 1-376, looked up)
chain: MAYTTFSQTKNDQLKEPMFFGQPVNVARYDQQKYDIFEKLIEKQLSFFWRPEEVDVSRDRIDYQALPEHEKHIFISNLKYQTLLDSIQGRSPNVALLPLISIPELETWVETWAFSETIHSRSYTHIIRNIVNDPSVVFDDIVTNEQIQKRAEGISSYYDELIEMTSYWHLLGEGTHTVNGKTVTVSLRELKKKLYLCLMSVNALEAIRFYVSFACSFAFAERELMEGNAKIIRLIARDEALHLTGTQHMLNLLRSGADDPEMAEIAEECKQECYDLFVQAAQQEKDWADYLFRDGSMIGLNKDILCQYVEYITNIRMQAVGLDLPFQTRSNPIPWINTWLVSDNVQVAPQEVEVSSYLVGQIDSEVDTDDLSNFQL
modifications: tyrosyl radical at Y122 (1-1.2 radicals per β2), diferric cluster
